T1: human B7-H4 expressed on cells (human, UniProt Q7Z7D3 25-282)
T1 construct: Transfected CHO cells or tumor cell lines that carry hB7-H4; also called cellular hB7-H4
T1 sequence: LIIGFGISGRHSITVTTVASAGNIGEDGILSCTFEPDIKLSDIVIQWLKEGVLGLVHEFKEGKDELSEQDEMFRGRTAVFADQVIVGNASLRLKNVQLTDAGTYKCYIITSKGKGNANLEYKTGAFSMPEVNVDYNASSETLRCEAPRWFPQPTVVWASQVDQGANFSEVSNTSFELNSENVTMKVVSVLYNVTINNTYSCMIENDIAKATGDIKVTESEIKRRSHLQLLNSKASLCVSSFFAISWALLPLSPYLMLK

B1: 39A11/57G8 (antibody, human IgG1, V domains shown)
VH: EVQLLESGGGLVQPGGSLRLSCAASGFTFSSYGMHWVRQAPGKGLEWVASISSSSGYIYYADSVKGRFTISRDNSKNTLYLQMNSLRAEDTAVYYCARASSGMDVWGQGTTVTVSS
VL: DIQMTQSPSSLSASVGDRVTITCRASQSIRSYLNWYQQKPGKAPKLLIYYASSLQSGVPSRFSGSGSGTDFTLTISSLQPEDFATYYCQQYYSTPLTFGQGTKVEIK
notes: 39A11 VH with 57G8 VL
B2: Control antibody 1 (antibody 20502 described in US20190085080A1) (antibody, V domains shown)
VH: QLQLQESGPGLVKPSETLSLTCTVSGGSIKSGSYYWGWIRQPPGKGLEWIGNIYYSGSTYYNPSLRSRVTISVDTSKNQFSLKLSSVTAADTAVYYCAREGSYPNQFDPWGQGTLVTVSS
VL: EIVMTQSPATLSVSPGERATLSCRASQSVSSNLAWYQQKPGQAPRLLIYGASTRATGIPARFSGSGSGTEFTLTISSLQSEDFAVYYCQQYHSFPFTFGGGTKVEIK
notes: also called (+) control Ab1; (+) Ab1

Key:
[1] = biological target: T1, human B7-H4 expressed on cells; test: flow cytometry, MX-1 cells
Procedure: Cells were harvested, washed once, and then re-suspended to the concentration of 1×10⁶ cells/ml in ice cold FACS Buffer. 25 μl of cell suspension was added to each well of a 96-well round-bottom microliter plate. Serially diluted antibodies or fusion proteins were added to each well and incubated for 1 hour at 4° C. Cells were washed three times by centrifugation at 1500 rpm for 5 minutes, and then stained with secondary antibody (1:200 dilution) for 30 min at 4° C. in the dark. Cells were washed once, re-suspended in 100 μl PBS buffer and then analyzed using Guava Flow Cytometry EasyCyte system.

[2] = biological target: T2, human B7-H4-Fc (human); test: ELISA, coated hB7-H4-Fc
T2 construct: also called hB7-H4-Fc; hB7-H4 Fc
T2 sequence (chain, as listed by the source): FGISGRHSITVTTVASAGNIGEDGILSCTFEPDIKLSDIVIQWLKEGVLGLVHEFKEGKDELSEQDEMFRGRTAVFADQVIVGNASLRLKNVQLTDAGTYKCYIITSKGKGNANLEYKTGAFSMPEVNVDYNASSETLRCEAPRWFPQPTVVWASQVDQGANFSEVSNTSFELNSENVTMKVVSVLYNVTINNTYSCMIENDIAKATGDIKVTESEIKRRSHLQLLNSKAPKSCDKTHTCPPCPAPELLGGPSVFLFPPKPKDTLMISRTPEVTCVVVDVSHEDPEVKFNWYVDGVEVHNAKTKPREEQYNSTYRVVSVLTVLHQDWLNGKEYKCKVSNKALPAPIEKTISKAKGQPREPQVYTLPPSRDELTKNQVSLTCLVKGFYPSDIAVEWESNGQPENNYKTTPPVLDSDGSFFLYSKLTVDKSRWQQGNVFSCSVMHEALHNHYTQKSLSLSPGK

| Binder | EC50 [1] | EC50 (read off the curve) [2] |
| --- | --- | --- |
| B1 | 8.87 nM | – |
| B2 | – | ~0.02 µg/mL |
